For the data set, the system named is T1, His-CalR (Vibrio parahaemolyticus RIMD2210633), ORF:1a4fc32f.
T1 sequence: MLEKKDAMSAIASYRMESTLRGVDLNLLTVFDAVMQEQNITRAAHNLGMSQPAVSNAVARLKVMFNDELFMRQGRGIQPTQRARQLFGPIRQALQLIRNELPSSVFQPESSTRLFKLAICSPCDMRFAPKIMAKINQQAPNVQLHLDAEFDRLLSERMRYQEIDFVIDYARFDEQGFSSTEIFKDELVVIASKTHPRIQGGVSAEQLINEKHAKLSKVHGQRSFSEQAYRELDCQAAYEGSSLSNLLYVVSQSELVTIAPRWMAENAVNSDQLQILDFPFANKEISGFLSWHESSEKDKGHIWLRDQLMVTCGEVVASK
Kind of data set: DNase I footprinting. Particulars: 10 mM Tris-HCl pH 7.5, 50 mM NaCl, 1 mM MgCl2, 0.5 mM EDTA, 0.5 mM DTT, 10 mg/ml salmon sperm DNA (so in the source), room temperature, 20 min (EMSA) or 30 min (ToxR …).

With “CAGGAAACAGCTATGACCGGCTTATATTTATTCTACAGATGGACAGCAATAACGTTCCACGTACAACACGTAATTAACATAGTATTTAATTTTTAAGATAACACAATTCTAATTCTTCATCGCTTGTCGATATAAACCAAAATCCCACCATAATAGAATTTAATAACCGTTAATCTTTATATGCACCAGCACTCATTTGTAAGATTAGAAGCAAGGAGTCAATTCTGGGTTTCCGGCCAAAATATAATAACTAACAACCAAAATTGATAAACACTGGCCGTCGTTTTAC (double strand) [exsB promoter, footprint fragment]”, the binding entry is given as “binds”.

The values are drawn from publication PMC5630374.
